# Test results reported in US11020478B2, “Methods for modulating angiogenesis of cancers refractory to anti-VEGF treatment” (INIS BIOTECH LLC, priority 2013, dated 2021).
# What was measured:
# [1] = biological target: T1, rhVEGFR2 (Homo sapiens, UniProt P35968); experiment: FRET-based fluorescence spectroscopy, Gal1 binding to rhVEGFR2; conditions: 594-Gal1 added to 0.5 μM 488-VEGFR2, 25° C.
# T1 construct: the recombinant extracellular domain of VEGFR2 expressed in human cells (Sino Biological Inc.); purchased Sino Biological Inc; host or cells: human cells
# Experimental: Association between rhVEGFR2 and Gal1 was studied by a FRET-based fluorescence spectroscopy approach. NHS-activated fluorophores DyLight 488 (DL488, FRET donor) and DyLight 594 (DL594, FRET acceptor) were purchased from Thermo Scientific. For labeling, 4 mg rhGal1 and 100 μg of the recombinant extracellular domain of VEGFR2 expressed in human cells (Sino Biological Inc.) were modified with 200 μg of DL594 and 50 μg of DL488, respectively. Labeling was carried out in PBS buffer in the presence of 5 mM dithiothreitol (DTT) for 1 hour at room temperature following manufacturer's recommended protocol (Thermo Scientific). Labeled rhGal1 was purified by size exclusion chromatography using a Superdex-75 column (GE Life Sciences) generated in PBS containing 5 mM DTT and concentrated up to 200 μM using Centricon tubes (Millipore). Labeled VEGFR2 was dialyzed for 48 hours against PBS using a homemade microdialyzer. Fluorescence spectra were measured in a JASCO FP-6500 spectrofluorometer endowed with a Peltier effect thermostatized cell holder. A 4×4 mm fluorescence cell was employed. All binding assays were carried out at 25° C. in PBS buffer with the addition of 5 mM DTT. Excitation wavelength was set to 493 nm, with a bandpass of 1 nm. Emission spectra were recorded from 500 to 680 nm, using a bandpass of 3 nm. […] Fluorescence intensity at 518 nm was corrected for dilution and inner filter effects.
# [2] = test system: HUVEC migration; experiment: EC migration assay (HUVEC); assay type: cell-based, human
# Experimental: (§1) Cells were incubated at 37° C. for periods ranging from 0 to 24 h and were visualized by phase-contrast microscopy. Capillary-like tubular structures were scored by counting the number of tubules (closed areas) per well in a phase-contrast microscope (Nikon E-100). For migration assays, ECs (4×10^4/well) transfected or not with specific siRNA were resuspended in M199 medium supplemented with 1% FCS. Cells were placed into the top chamber of the insert while the bottom well was filled with Gal1 or VEGF-A in the absence or presence of the above mentioned stimuli. After 24 hours, inserts were stained with crystal violet (Sigma) and analyzed in an inverted microscope. For each filter, 4 images were obtained and cells were counted with ImageJ software v1.46r (NIH). […] After 24 hours, cells were incubated in the presence of 0.8 μCi [^3H]-thymidine (NEN Dupont). Cells were then harvested and radioactivity was measured in a 1414 Liquid Scintillation Counter (Perkin Elmer). Tumor-associated ECs were identified by flow cytometry using Alexa Fluor 647-conjugated anti-CD34 (RAM34; eBioscience) and FITC-conjugated anti-CD45 (J33; Immunotech). Microvessel density (MVD) was determined by counting the number of CD31^+ microvessels present in 10 mm^2. Ten random 400× fields were counted.
# [3] = test system: other members of the galectin family; conditions: cited from earlier work
# [4] = test system: B16-F0 melanoma; experiment: In vivo tumor model, B16-F0; design: species or system mouse; conditions: single administration of F8.G7 mAb, 10 mg/kg
# [5] = test system: R1.1 T-cell lymphoma; experiment: In vivo tumor model, R1.1; design: species or system mouse
# Experimental: as §1, with “counted. […]” for “counted.”
# [6] = test system: B16-F0 melanoma; experiment: In vivo tumor model, B16-F0; design: species or system mouse
# Experimental: (§2) Mice were anesthetized and intracardiacally perfused with PBS and 4% (w/v) paraformaldehyde and tissues were embedded in OCT. To visualize the vasculature, mice were intravenously injected with FITC-conjugated Griffonia simplicifolia Lectin-1 (GLS-1B4; Vector) prior to heart perfusion and fixation. Pericyte maturation was assessed using Ab specific for α-SMA (1A4; Dako), desmin (D33; Dako), PDGFR-β (APB5; Biolegend) and RGS5 (HPA001821; Prestige Sigma). The fraction of pericyte coverage was calculated as the ratio of α-SMA area to the FITC-GLS-1B4 or CD31-stained area using a specific anti-CD31 Ab (Mec13.3; BD Biosciences). Hypoxia was detected after injection of pimonidazole hydrochloride for 30 min following immunostaining with Hypoxyprobe-1 plus kit (Natural Pharmacia). Tumor-infiltrating cells were analyzed using anti-CD8 (H35-17.2; e-Bioscience) and anti-F4/80 (BM8; eBioscience) mAb.
# (§3) Wild-type or Gal1 knockdown B16-F0, LLC1 and R1.1 (2.5 or 5×10^5 cells) were subcutaneously inoculated into 6- to 8-week old WT, Mgat5^−/−, St6gal1^−/− or Rag1^−/− B6 mice. CT26 (5×10^5) cells were injected into syngeneic BALB/c mice. When tumors reached 100 mm^3, mice were inoculated intraperitoneally with anti-VEGF (B20-4.1.1; 5 or 10 mg/kg), anti-Gal1 (F8.G7; 5, 10 or 15 mg/kg) or isotype control mAb twice weekly. Axitinib (30 mg/kg; Sigma) was administered every two days by oral gavage. Mice were sacrificed when tumors reached a volume greater than 2.5 cm^3. Two weeks after tumor inoculation, TDLN cells (5×10^5/well) were re-stimulated ex vivo for 72 hours with lysates of B16-F0 or LLC1 cells and analyzed for proliferation and cytokine production (as described in Rubinstein et al., Cancer Cell 5:3, 241-51 (2004)).
# [7] = test system: VEGFR2; experiment: Immunoblot of VEGFR2 phosphorylation in HUVEC; assay type: cell-based, human
# Experimental: Cells were lysed and analyzed by the human […] RTK Signaling Antibody Array (Cell Signaling) following the manufacturer's directions. For co-immunoprecipitation, 500 μg lysates were incubated with 2 μg anti-VEGFR2 (55B11; Cell Signaling) Ab. The immunocomplexes were captured with protein G PLUS-Agarose (Santa Cruz) and processed for immunoblotting (according to methods described in Ilarregui et al., Nat. Immunol. 10, 981-99 (2009)). Blots were probed with anti-Erk1/2 (C14), anti-phospho-Erk1/2 (E4), anti-actin (I-19), anti-Gal3 (B2C10), anti-Gal4 (Q20), anti-Gal7 (H8) or anti-Gal8 (D18) Ab (all from Santa Cruz) or anti-Akt (9272), anti-phospho-Akt (9271 S), anti-VEGFR2 (55B11), anti-phospho-VEGFR2 (19A10) Ab (all from Cell Signaling) or a rabbit anti-Gal1 polyclonal IgG (1.5 μg/ml) (as described in Rubinstein et al., Cancer Cell 5:3, 241-51 (2004)).
# [8] = test system: TDLN cells; experiment: TDLN cell responses of tumor-bearing mice (ex vivo restimulation, ELISA, flow cytometry); assay type: in vivo, mouse
# Experimental: (§4) Gal1 was determined using an in-house ELISA (according to the methods described in Croci et al., J. Exp. Med. 209:11, 1985-2000 (2012). The mouse IFN-γ (DY485), mouse IL-17 (DY421), mouse TGF-β1 (DY1679), mouse Gal3 (DY1179) and human VEGF-A (DY293B) ELISA sets were from R&D. The mouse IL-10 (555252) set was from BD Biosciences, the mouse bFGF (Ab100670) set was from Abcam, and the mouse Gal8 (SEA308Mu) set was from USCN Life Science. Optical densities were determined at 450-550 nm in a Multiskan MS microplate reader (Thermo Electron Corporation).
# (§5) For intracellular cytokine staining, TDLN cells were made permeable with Perm2 solution (BD Biosciences) and were labeled with fluorescent-conjugated mAb anti-IFN-γ (XMG1.2; BD Biosciences), anti-IL-17 (TC11-18H10; BD Biosciences), anti-IL-10 (JESS-16E3; eBioscience), anti-CD8 (H35-17.2; eBioscience) and anti-CD4 (GK1.5; BD Biosciences). Cells were analyzed on a FACSCanto II flow cytometer (BD Biosciences). For adoptive transfer, splenic T cells (5×10^6) from tumor-bearing mice were labeled with CFSE (Molecular Probes) and injected through the tail vein into tumor-bearing recipient mice treated with F8.G7 mAb or isotype control. APC-fluorescent beads (7-10 μm; BD Biosciences) were injected as controls. CFSE^+ cells or APC^+ beads were analyzed after 24 h or 15 min respectively by flow cytometry in the tumor parenchyma and spleen.
# as §2
# Wild-type or Gal1 knockdown B16-F0, LLC1 and R1.1 (2.5 or 5×10^5 cells) were subcutaneously inoculated into 6- to 8-week old WT, Mgat5^−/−, St6gal1^−/− or Rag1^−/− B6 mice. CT26 (5×10^5) cells were injected into syngeneic BALB/c mice. […] Two weeks after tumor inoculation, TDLN cells (5×10^5/well) were re-stimulated ex vivo for 72 hours with lysates of B16-F0 or LLC1 cells and analyzed for proliferation and cytokine production (as described in Rubinstein et al., Cancer Cell 5:3, 241-51 (2004)).
# [9] = test system: HUVEC tube formation; experiment: Capillary-like tube formation on Matrigel (HUVEC); assay type: cell-based, human; conditions: HUVEC
# Experimental: as §1
# [10] = test system: LLC1 Lewis lung carcinoma; experiment: In vivo tumor model, LLC1; design: species or system mouse
# Experimental: as §1, with “Tumor-associated ECs were identified by flow cytometry using Alexa Fluor 647-conjugated anti-CD34 (RAM34; eBioscience) and FITC-conjugated anti-CD45 (J33; Immunotech).” left out
# Mice were anesthetized and intracardiacally perfused with PBS and 4% (w/v) paraformaldehyde and tissues were embedded in OCT. […] Pericyte maturation was assessed using Ab specific for α-SMA (1A4; Dako), desmin (D33; Dako), PDGFR-β (APB5; Biolegend) and RGS5 (HPA001821; Prestige Sigma). […]
# [11] = biological target: T2, Gal1 (Mus musculus, UniProt P16045); experiment: ELISA of Gal1 secretion by tumors inoculated in syngeneic mice; assay type: in vivo; conditions: B16-F0, LLC1 and R1.1 tumors, day 16
# T2 construct: from tissue; host or cells: B16-F0, LLC1 and R1.1 tumours grown in syngeneic mice
# Experimental: as §4, §3
# [12] = test system: B16-F0 tumor parenchyma; experiment: Adoptive transfer of CFSE-labeled T cells / fluorescent beads, influx to tumor and spleen; assay type: in vivo, mouse
# Experimental: as §5
# [13] = F8.G7 10 mg/kg combined with anti-VEGF mAb, day 7
# [14] = single administration of F8.G7 mAb, 10 mg/kg
# T1 sequence (P35968 20-764 limits assumed): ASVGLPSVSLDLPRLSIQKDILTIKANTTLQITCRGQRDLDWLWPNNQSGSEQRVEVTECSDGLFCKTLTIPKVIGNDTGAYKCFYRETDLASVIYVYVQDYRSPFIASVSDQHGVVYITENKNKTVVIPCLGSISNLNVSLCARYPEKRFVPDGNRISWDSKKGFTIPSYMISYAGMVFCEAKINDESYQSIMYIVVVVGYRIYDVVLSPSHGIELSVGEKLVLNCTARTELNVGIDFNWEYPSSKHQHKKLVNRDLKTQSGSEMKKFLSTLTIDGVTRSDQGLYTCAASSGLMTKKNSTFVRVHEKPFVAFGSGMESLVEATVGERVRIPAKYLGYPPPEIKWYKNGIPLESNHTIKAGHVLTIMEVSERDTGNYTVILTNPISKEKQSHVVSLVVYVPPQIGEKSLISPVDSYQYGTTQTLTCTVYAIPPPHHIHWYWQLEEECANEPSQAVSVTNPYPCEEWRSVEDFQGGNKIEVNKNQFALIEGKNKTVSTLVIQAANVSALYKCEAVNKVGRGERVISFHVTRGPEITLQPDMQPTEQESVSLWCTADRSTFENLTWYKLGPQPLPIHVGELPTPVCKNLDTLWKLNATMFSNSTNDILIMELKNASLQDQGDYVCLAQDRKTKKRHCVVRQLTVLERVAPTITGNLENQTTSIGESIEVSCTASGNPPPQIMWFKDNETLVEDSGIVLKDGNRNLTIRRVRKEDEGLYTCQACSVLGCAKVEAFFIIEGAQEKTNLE
# T2 sequence (P16045 whole entry): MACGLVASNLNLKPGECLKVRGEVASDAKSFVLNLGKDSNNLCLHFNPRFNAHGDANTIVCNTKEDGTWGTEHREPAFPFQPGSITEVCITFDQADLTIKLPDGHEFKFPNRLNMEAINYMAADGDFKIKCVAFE
molecule,measurement,setting,value
"Gal1: recombinant Galectin-1, glycan-binding protein (SEQ ID NO: 2)",dissociation constant (Kd),[1],low micromolar range
"F8.G7: mouse anti-Gal1 blocking (neutralizing) monoclonal antibody; hybridoma 8F4.F8.G7, ATCC deposit PTA-10535; vH SEQ ID NO: 6, vK SEQ ID NO: 11 (antibody, V domains shown, Anti-human) VH: EVQLQQSVAEFVRPGASVRLSCTASGFNIKNTYIHWVRQRPEQGLEWIGKIDPANGNTKYVPEFQGKATMTADTSSNTVYLHLSSLTSEDTAIYYCVDGYYGWYFAVWGTGTTVTVSS VL: QAVVTQESALTTSPGETVTLTCRSSTGAVTTSNYANWVQEKPDHLFTGLIGATNNRAPGVPARFSGSLIGDKAVLTITGAQTEDEAIYFCALWYRNHFIFGSGTKVTVL",EC migration induced by Gal1,[2],specifically prevented
same,binding to other members of the galectin family,[3],did not bind
same,tumor growth and vascularization,[4],sustained inhibition of tumor growth and vascularization
same,anti-VEGF resistance (tumor growth inhibition and reduced vascularization),[5]; [13],successfully circumvented
same,tumor growth and vascularization,[5]; [14],sustained inhibition of tumor growth and vascularization
same,therapeutic benefit of anti-VEGF,[6]; F8.G7 10 mg/kg combined with anti-VEGF mAb,slightly enhanced
same,remodeling of tumor vasculature,[6]; days 4-5 post treatment,substantial remodeling of the vasculature
same,pericyte coverage of tumor vessels,"[6]; days 4-5 post treatment, vs control mAb",greater coverage by pericytes
same,anti-tumor effect,[6]; immunodeficient B6.Rag1−/− mice,only a partial anti-tumor effect
same,concentrations at which active,[6]; in vivo tumor models,5 to 10 mg/kg
same,tumor hypoxia (pimonidazole adducts),"[6]; mouse, in vivo",markedly alleviated
same,tumor growth at different doses,[6]; treated when tumors reached 100 mm^3,dose-dependent effect
same,Desmin expression in pericytes,[6]; vs control-treated tumors,no significant variations
same,PDGFR-β expression in pericytes,[6]; vs control-treated tumors,lower expression
same,RGS5 expression in pericytes,[6]; vs control-treated tumors,lower expression
same,α-SMA expression in pericytes,[6]; vs control-treated tumors,higher expression
same,Gal1-induced VEGFR2 phosphorylation,[7],inhibited to levels comparable to those attained by MGAT5 silencing
same,T-cell proliferation,[8]; mice bearing B16-F0 tumors,stimulated
same,tumor-specific IL-10 production,[8]; mice bearing B16-F0 tumors,blunted
same,immunological phenotype,[8]; mice inoculated with LLC1,confirmed
same,number of TDLN and tumor-infiltrating IFN-γ-producing CD8+ T cells,[8]; vs control-treated mice,dramatic increase
same,tube formation induced by Gal1,[9],specifically prevented
same,anti-VEGF resistance (tumor growth inhibition and reduced vascularization),[10]; [13],successfully circumvented
same,tumor growth and vascularization,[10]; [14],sustained inhibition of tumor growth and vascularization
same,amounts of secreted Gal1,[11],dropped substantially
same,T cells reaching tumor parenchyma,"[12]; CFSE-labeled T cells, vs control isotype",greater number
same,number of CFSE+ T cells in spleens,[12]; vs control isotype,no differences
same,access of fluorescently-labeled beads to the tumor parenchyma,[12]; vs control-treated mice,increased access
